Results reported in paper PMC7385938 (Cell Stress & Chaperones, 2020).

Biological target: the molecule itself
Assay: non-reducing LDS-PAGE of proteoliposomes

| Protein | binding result | stoichiometry N |
| --- | --- | --- |
| HSPA5-FL (full-length human HSPA5 without the leading signal peptide for ER translocation) (natural protein) not shown | binds |  |
| HSPA5-N (N-terminal end domain of HSPA5) (domain or fragment) not shown |  | 2 |
| HSPA1-N (N-terminal end domain of HSPA1) (domain or fragment) not shown | binds |  |
